In patent US20200190176A1 (VERITAS THERAPEUTICS, published 2020) one finds Kd, koff and kon data, which are given here for two molecules.

One test deals with T1, recombinant mouse FGL2 (mouse, UniProt P12804 27-432, limits assumed).
T1 construct: native mouse FGL2 is said to exist as an oligomer; also called murine recombinant FGL2
T1 sequence (looked up): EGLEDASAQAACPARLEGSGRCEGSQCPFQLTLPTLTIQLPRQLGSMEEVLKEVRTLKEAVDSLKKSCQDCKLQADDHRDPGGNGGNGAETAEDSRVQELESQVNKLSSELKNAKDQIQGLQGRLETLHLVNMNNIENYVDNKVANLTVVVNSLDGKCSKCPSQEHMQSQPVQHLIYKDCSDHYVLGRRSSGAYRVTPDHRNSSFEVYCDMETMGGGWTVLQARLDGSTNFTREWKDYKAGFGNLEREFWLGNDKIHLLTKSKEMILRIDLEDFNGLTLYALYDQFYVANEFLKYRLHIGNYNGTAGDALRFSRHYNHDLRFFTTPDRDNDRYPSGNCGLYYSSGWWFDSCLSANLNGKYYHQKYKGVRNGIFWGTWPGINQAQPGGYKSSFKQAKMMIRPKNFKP
In words: SPR, Biacore 3000, 25 C, antibody captured by goat anti-mouse Fc, FGL2 as analyte. The protocol: (§1) The response difference (Resp. Diff.) for each experiment was plotted against time (s). Resp. Diff. is the ligand-immobilized flow cell minus the control flow cell. A) Human FGL2. For the full kinetic analysis, SPR was performed using 0.625 nM, 2.5 nM, 5 nM, and 10 nM recombinant human FGL2. B) Mouse FGL2. For this analysis, SPR was performed using 10 nM recombinant mouse FGL2.
(§2) Binding experiments were performed on Biacore 3000 at 25° C. Flow cell 2 was coated with 1,000 RU of the goat anti-mouse Fc capture Ab by direct immobilization using EDC/NHS amine coupling method and the unoccupied sites were blocked with 1M ethanolamine. 9D8 or 3H9 was captured at an RU as indicated. Either recombinant human or mouse FGL2 was flowed over the chip and binding to 9D8 or 3H9 was monitored in real time. From the observed kon and koff, KD was determined.

The next test deals with T2, recombinant human FGL2 (human, UniProt Q14314 30-439, limits assumed).
T2 construct: also called hFGL2; FGL2/fibroleukin
T2 sequence (looked up): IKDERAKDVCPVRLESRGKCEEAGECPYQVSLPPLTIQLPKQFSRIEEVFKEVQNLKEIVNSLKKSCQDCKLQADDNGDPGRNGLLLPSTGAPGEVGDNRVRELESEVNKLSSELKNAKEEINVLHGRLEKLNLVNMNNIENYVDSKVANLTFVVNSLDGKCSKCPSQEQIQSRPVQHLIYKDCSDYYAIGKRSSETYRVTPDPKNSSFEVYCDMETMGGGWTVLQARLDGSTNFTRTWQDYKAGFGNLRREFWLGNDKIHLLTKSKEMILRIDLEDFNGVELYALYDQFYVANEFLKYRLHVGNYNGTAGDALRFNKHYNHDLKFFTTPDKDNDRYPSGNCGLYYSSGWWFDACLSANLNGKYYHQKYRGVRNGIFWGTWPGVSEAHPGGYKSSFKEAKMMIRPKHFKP
Described as above. The protocol: as §1, §2

B1: anti-FGL2 monoclonal antibody 3H9 (antibody, mouse IgG2b, kappa, V domains shown)
VH: EVQLQQSGPELVKSGASVKISCKTSGYTFTEYTIHWVKQSHGESLEWVGGINPKNGGISYNQKFKGKATLTVDKSSSTAYMELRSLTSEDSAVYFCARWGIGNYVGFPYWGQGTLVTVSA
VL: SIVMTQTPKFLLVSAGDRVTMTCKASLSVNNDVAWYQQKPGQSPKLLISYASSRYTGVPDRFTGSGYGTDFTFTISSVQAEDLAVYFCQQDYSSPLTFGAGTKLELKR
notes: Mouse hybridoma antibody generated in the same manner as 9D8; here built without leader
As for B1, in the test with recombinant mouse FGL2, the Kd was found to be 0.103 nM, the koff turned out to be 0.000189 s⁻¹ and the kon amounted to 1.84e+06 M⁻¹ s⁻¹. In the test with recombinant human FGL2, the Kd was 0.286 nM, the koff amounted to 0.000884 s⁻¹ and the kon came out at 3.09e+06 M⁻¹ s⁻¹.

B2: anti-FGL2 monoclonal antibody 9D8 (antibody, mouse IgG1, kappa, V domains shown)
VH: EVQLQQSGAELVKPGASVQLSCTASGFNIKDTYIHWVKQRPEQGLEWIGRIDPEDGNTKYDPKFQAKATITADTFSNTAYLQLSSLTSEDTAVYYCARSYGNAYWGQGTLVTVSA
VL: DIVLTQSPASLAVSLGQRATISCRASQSVSTSRYTYMHWYQQKPGQPPKLLIKYASNLDSGVPARFSGSGSGTDFTLNIHPVQEEDTATYYCQHSWEIWAFGGGTKLEIKR
notes: Mouse hybridoma antibody purified from ascites; isotype-matched control was IgG1; here built without leader from variable region plus constant region; also called clone 9D8; antibody to FGL2 (9D8)
Take B2: in the test with recombinant mouse FGL2, the Kd was found to be 1.8 nM, the koff is 0.00334 s⁻¹ and the kon turned out to be 1.85e+06 M⁻¹ s⁻¹. Besides, in the test with recombinant human FGL2, the Kd was determined as 0.857 nM, the koff was determined as 0.0019 s⁻¹ and the kon was found to be 2.22e+06 M⁻¹ s⁻¹.
